Literature values in publication PMC7109175.

Biological target: cMyBP-C (Mus musculus) (UniProt O70468)
Chain of UniProt O70468 (O70468 whole entry): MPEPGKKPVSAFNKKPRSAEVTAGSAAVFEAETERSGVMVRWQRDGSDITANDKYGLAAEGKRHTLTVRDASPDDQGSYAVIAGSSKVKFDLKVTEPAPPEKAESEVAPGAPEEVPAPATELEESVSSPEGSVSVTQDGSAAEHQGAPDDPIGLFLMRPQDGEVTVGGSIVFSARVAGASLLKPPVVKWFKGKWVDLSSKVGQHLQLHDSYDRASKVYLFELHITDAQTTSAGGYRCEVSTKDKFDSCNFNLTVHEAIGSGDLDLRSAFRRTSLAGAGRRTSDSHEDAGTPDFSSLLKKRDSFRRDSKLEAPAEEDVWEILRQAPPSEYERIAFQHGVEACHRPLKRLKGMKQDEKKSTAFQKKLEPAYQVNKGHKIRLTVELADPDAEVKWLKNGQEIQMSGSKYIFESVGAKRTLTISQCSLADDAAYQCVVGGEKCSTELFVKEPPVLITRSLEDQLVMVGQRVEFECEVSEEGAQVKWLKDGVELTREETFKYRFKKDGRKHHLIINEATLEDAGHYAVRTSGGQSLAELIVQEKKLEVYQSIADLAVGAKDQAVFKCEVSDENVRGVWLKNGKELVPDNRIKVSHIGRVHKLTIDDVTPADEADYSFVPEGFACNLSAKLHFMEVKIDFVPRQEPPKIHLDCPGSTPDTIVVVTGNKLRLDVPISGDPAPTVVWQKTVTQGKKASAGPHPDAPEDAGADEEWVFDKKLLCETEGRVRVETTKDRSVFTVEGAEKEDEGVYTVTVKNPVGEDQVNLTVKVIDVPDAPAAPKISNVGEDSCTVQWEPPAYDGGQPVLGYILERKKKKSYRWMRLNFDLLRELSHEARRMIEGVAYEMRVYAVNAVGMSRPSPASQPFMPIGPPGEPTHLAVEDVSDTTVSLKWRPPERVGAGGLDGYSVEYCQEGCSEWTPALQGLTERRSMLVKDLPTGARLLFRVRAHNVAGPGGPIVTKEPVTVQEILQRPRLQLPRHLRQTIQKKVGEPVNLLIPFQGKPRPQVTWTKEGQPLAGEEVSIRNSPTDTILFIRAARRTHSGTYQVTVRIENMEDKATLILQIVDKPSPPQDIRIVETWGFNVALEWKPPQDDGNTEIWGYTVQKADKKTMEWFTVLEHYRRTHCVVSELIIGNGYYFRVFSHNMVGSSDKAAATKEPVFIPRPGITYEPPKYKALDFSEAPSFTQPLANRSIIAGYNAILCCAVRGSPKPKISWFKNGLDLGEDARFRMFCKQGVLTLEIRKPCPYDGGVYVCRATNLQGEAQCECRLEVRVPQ

Kd: 800 nM
Substance: Fhod3 (from UniProt Q76LL6)
